Measured values published in the Immune Epitope Database (IEDB).

Target: HLA-A*02:01
Test: IEDB peptide-MHC binding, purified MHC/competitive/radioactivity; ≥ and ≤ were set here for values at or beyond the usual limits of such assays
[1] = source organism: Vaccinia virus WR
[2] = source organism: Mammarenavirus machupoense
[3] = source organism: Mammarenavirus lassaense
[4] = source organism: Mammarenavirus whitewaterense
[5] = source organism: Mammarenavirus brazilense

Sequence | IC50 [1] | further results
ALMAITKNV | 8.4 nM | –
FLSLMSLSI | 3.5 nM | –
SIFGFQAEV | 0.54 nM | –
IMFTCMDPL | 2.1 nM | –
LLFILFYFA | 85 nM | –
GLIKKPYRSI | 848 nM | –
IMEYHLLFA | 13 nM | –
FMMVLPGAA | 6.7 nM | –
AIIPLSASV | 14 nM | –
ILQYDLWNV | 0.17 nM | –
KTITTCYLM | 445 nM | –
KLTDKKTFI | 1120 nM | –
CLKDIIDFL | 671 nM | –
KLSCAVHLI | 3.2 nM | –
TLLCVLPAV | 1 nM | –
SLDVINYLI | 0.55 nM | –
KLYLVDYGL | 13 nM | –
GLADAFILL | 13 nM | –
FLPKAAFAL | – | IC50 [2]: 30 nM
TAIFTDASTV | 4460 nM | –
VLPNKVRIFI | 1310 nM | –
YIIKNTFNV | 0.54 nM | –
CLCSFHNDAI | 2880 nM | –
PVLMFLLFYV | 69 nM | –
RVFNEYGFV | 190 nM | –
NIIDWQFAI | 5.4 nM | –

Sequence | IC50 [1] | further results
SQEVRKYFCV | 1200 nM | –
KIDKLRQIV | 1560 nM | –
GTMPSLTLA | – | IC50 [3]: 1670 nM
RLSLNRTIV | 849 nM | –
ALMRRIAVV | 1.8 nM | –
LLMMTLPSI | 0.11 nM | –
TVMNNLSEL | 533 nM | –
QLLEAVYGNI | 199 nM | –
GIAHLLEHL | 3560 nM | –
RINDDSKSIL | 4360 nM | –
ALIAVSIISI | – | IC50 [4]: 246 nM
IVEVPEDGI | 2450 nM | –
NLNIVRDML | 2760 nM | –
LLHVFQEYRL | 27 nM | –
FLSYISDTV | 0.54 nM | –
YITALNHLV | 0.71 nM | –
LLPGFVLTCI | 3.7 nM | –
LMDCIMFDAA | – | IC50 [3]: 595 nM
VMTPSPFYT | 2660 nM | –
ALTIACMTV | – | IC50 [2]: 332 nM
RVFNEYGFVL | 535 nM | –
KLVDICDRIV | 32 nM | –
MVDEEPAAL | – | IC50 [2]: 998 nM
SIINRDIIV | 699 nM | –
LISLTNEIYA | 1220 nM | –
FLHESDPMVI | 1.1 nM | –

Sequence | IC50 [1] | further results
IIAIVFVFI | 241 nM | –
QTANVVFRYM | 729 nM | –
LLISMYCSKT | 1150 nM | –
SASVFYRGA | 2050 nM | –
LMMSCISCI | 12 nM | –
YLTVSFIDET | 4780 nM | –
FLSRLVLYA | 0.075 nM | –
KQFIQRGGL | 3990 nM | –
ILASIIDYV | 0.61 nM | –
STIDGRIVTL | 736 nM | –
VVYSTCTVPT | 2320 nM | –
AIMESDSFL | 173 nM | –
GLVRLNAFL | 1.7 nM | –
ILMDSIFVST | 45 nM | –
ALIAVSLIAA | – | IC50 [5]: 28 nM
IVMDNDDNI | 445 nM | –
LMIFISSFLL | 27 nM | –
DLYDYITRI | 1030 nM | –
TIATYIDAL | 610 nM | –
YLFRIVSTV | 1.2 nM | –
TLKSFFAWSL | – | IC50 [4]: 1340 nM
AMFTAALNI | 2.4 nM | –
FQQPQFQYL | 48 nM | –
FVFSTSFYLI | – | IC50 [3]: 329 nM
QLVDAIDNIV | 101 nM | –
NLYDHALMSI | – | IC50 [3]: 3.9 nM

Sequence | IC50 [1] | further results
YIYYFFIRL | 8.8 nM | –
YLGMFNPYSL | 0.16 nM | –
ILDDNLYKV | 1.3 nM | –
AVLLTYFCFV | 3.4 nM | –
YIDALAKNA | 473 nM | –
EALNIALVAV | – | IC50 [2]: 341 nM
KVFFGPIYYL | 18 nM | –
MMWDLKKKGL | 103 nM | –
ILPVIFLSI | 0.66 nM | –
ILPCPQINTL | 1380 nM | –
RLHKECLLRL | 447 nM | –
ELMYIFAAL | 108 nM | –
LMMTLPSIFL | 0.2 nM | –
YLMDEEVPA | 13 nM | –
QAIMESDSFL | 67 nM | –
FLLFLEITYT | 6.9 nM | –
YLLDRGADI | 8.6 nM | –
KLQAAVMET | 363 nM | –
TVMVKINPTL | 114 nM | –
NLFDIPLLTV | 0.33 nM | –
IVVELEPSL | 2110 nM | –
TTLSRHIFMA | 399 nM | –
NMQTVKLFV | 12 nM | –
ILGILYLYET | 73 nM | –
VILFIMFMLI | 384 nM | –
GIYHDDLVV | 2830 nM | –

Sequence | IC50 [1] | further results
ALTIMGVIFL | 180 nM | –
FIVVATAAV | 7 nM | –
IIVALTIMGV | 216 nM | –
SLIAIIKGV | – | IC50 (source organism: Mammarenavirus juninense): 12 nM
AIYSAILLLV | 53 nM | –
FTLIDIWFL | 0.49 nM | –
ALVALVITI | 1.9 nM | –
CQQKCDMPSL | 2370 nM | –
RLLDLFGPEV | 0.98 nM | –
EIIPSSIPV | 4650 nM | –
LVITINYFL | 25 nM | –
TLVDICFWST | – | IC50 [5]: 13 nM
FLVFVKPTT | 516 nM | –
RTFLIDLAFL | 6.6 nM | –
HLNPSRIRI | 956 nM | –
FMFIGSPMYL | 0.093 nM | –
AVTKTDGIPI | 1460 nM | –
LLSKNTFYL | 3.1 nM | –
MMCYFLTATL | 18 nM | –
TISVVTLLCV | 3420 nM | –
TMLMFIFTGI | 0.89 nM | –
KMIPLLFIL | 2.9 nM | –
TIDFKLKYFL | 3030 nM | –
YVKTLLISM | 1890 nM | –
VVCNDLYKV | 174 nM | –
PLLFILFYFA | 42 nM | –
